Measured values from PMC7890179, “Adiponectin forms a complex with atherogenic LDL and inhibits its downstream effects” (Journal of Lipid Research, 2020).

B1: Human recombinant full-length adiponectin protein (composed of the LMW, MMW, and HMW isoforms) with a C-terminal FLAG sequence (natural protein, UniProt Q15848 19-244, looked up)
chain: ETTTQGPGVLLPLPKGACTGWMAGIPGHPGHNGAPGRDGRDGTPGEKGEKGDPGLIGPKGDIGETGVPGAEGPRGFPGIQGRKGEPGEGAYVYRSAFSVGLETYVTIPNMPIRFTKIFYNQQNHYDGSTGKFHCNIPGLYYFAYHITVYMKDVKVSLFKKDKAMLFTYDQYQENNVDQASGSVLLHLEVGDQVWLQVYGEGERNGLYADNDNDSTFTGFLLYHDTN
notes: adiponectin, human, full-length recombinant protein; A mixture of trimers (LMW), hexamers (MMW) and HMW multimers; Secreted from HEK293 cells, so the signal peptide is probably absent (surmised); also called AdN; human recombinant full-length AdN; source: bought: BioVendor cat. no; RD172023100, produced in HEK293 cells

How the values were obtained:
[1] = molecular target: copper-oxidized low density lipoprotein (human (endogenous in human plasma)); assay: ELISA; native LDL or oxLDL (1 μg/ml) captured on anti-apoB monoclonal antibody HUC20 on a 384-well plate; recombinant adiponectin added for 1 h at 25°C, washed with PBS, detected with anti-adiponectin polyclonal antibody; apparent Kd, 1:1 reversible binding assumed
[2] = molecular target: copper-oxidized low density lipoprotein (human (endogenous in human plasma), oxidized with 7.5 μM CuSO4 for 16 h (residues not stated)); assay: as above; conditions: both partners purified

Row | Molecule | Kd [1] | Kd [2]
1 | globular form of adiponectin protein with an N-terminal His-tag sequence (domain or fragment; other documents disagree on this pair) | 45.3 nM | –
2 | B1 | – | 15.7 nM
